Assay results taken from article PMC2996049 (Structure (London, England : 1993), 2010).

Biological target: the molecule itself
Assay: SEC

B1: Full-length His6-tagged NrpR from Methanococcus maripaludis (MmNrpR) (natural protein, UniProt Q6LZL7 1-536, looked up)
chain: MDSNIDVEILSILSEASAPVGAKIIADSLKDRGYDIGERAVRYHLKVLDENSLTKKLGYSGREITEKGIEELEKANISFRIGSVFSQVIEKLYLSDFPSKVLINTAKFEGDYKTIKEMVLRSFEAGYSVGDYLNIKKKGNTVSVETLCSITFDNFLLKNGIIPTPEYGGIVKFEDYEPVNFEGVIDFKSSSIDPLVAFIMQGKTDVIGVIENGEGLVPANFRVIPKSSEKQFETILKKDMLNSVLAYGTENVLGMNLNPEQIGVVLVGGLTPLCVPHESGYTADISAATQLKDISSMEKKTKGFLEAKKKKGKFKVTPVLSKMLSKMQTINYDIEDKKGNVVVNTAKIPIEYKEEAINALKDSYENKLAISDRLKVECDDKFLNAYTICSLTVDGVFLKNKIPVIPYYGGILEVKADKKRFIEAIDYEGTSLDPHEVFFNKADGKNYILAGIRKVPMSASEKLIELNEKLGWNSIIEIGRPNNDICGVRVEKCMFGITTIGGTNPFANIRKNNIPVEMKTLHKSIDYSELTHYDDI
In the case of B1, the “stoichiometry N” value is reported as 2.
